From patent US20190192484A1 (UNIVERSITY OF CHICAGO, published 2019)

Target: Vimentin (endogenous, WT fibroblasts) (mouse, UniProt P20152 2-466)
Assay: proximity ligation assay in WT fibroblasts with anti-BAD and anti-Vimentin (FIG. 8F)

Vimentin (endogenous, WT fibroblasts), sequence (P20152 2-466 limits assumed): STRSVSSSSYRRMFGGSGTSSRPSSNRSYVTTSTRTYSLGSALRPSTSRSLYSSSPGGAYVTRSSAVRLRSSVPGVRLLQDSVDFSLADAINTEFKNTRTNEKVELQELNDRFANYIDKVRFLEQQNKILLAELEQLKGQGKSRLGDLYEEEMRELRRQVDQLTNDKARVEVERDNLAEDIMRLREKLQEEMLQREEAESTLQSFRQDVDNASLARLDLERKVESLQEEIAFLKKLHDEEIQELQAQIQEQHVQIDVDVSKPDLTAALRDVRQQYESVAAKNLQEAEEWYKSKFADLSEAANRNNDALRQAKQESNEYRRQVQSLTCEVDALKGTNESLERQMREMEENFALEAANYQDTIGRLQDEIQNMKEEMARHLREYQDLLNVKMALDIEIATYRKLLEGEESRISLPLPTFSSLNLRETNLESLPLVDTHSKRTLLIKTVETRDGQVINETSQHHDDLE

B1: BCL-2-associated death promoter (BAD), endogenous in WT fibroblasts (other, mouse, UniProt Q61337 1-204, looked up)
chain: MGTPKQPSLAPAHALGLRKSDPGIRSLGSDAGGRRWRPAAQSMFQIPEFEPSEQEDASATDRGLGPSLTEDQPGPYLAPGLLGSNIHQQGRAATNSHHGGAGAMETRSRHSSYPAGTEEDEGMEEELSPFRGRSRSAPPNLWAAQRYGRELRRMSDEFEGSFKGLPRPKSAGTATQMRQSAGWTRIIQSWWDRNLGKGGSTPSQ
notes: Endogenous protein inside fixed cells (microscopy, proximity ligation assay); also called WT BAD
B1: no binding.
